According to US20090136527A1:
Non-standard residues stand in square brackets, D forms with d. pGlu = O=C1CC[C@@H](C(=O)O)N1

T1: human GnRH receptor (human) (UniProt P30968)
T1 sequence (looked up): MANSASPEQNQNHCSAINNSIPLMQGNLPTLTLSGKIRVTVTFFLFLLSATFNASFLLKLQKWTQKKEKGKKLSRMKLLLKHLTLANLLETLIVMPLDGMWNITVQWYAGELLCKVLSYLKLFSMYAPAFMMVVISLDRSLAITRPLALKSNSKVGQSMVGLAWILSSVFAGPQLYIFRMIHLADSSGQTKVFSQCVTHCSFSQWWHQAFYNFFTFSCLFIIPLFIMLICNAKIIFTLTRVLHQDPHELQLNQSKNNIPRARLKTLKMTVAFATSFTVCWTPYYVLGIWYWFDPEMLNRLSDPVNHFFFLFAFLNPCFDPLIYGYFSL

B1: chicken GnRH I ([Gln8]GnRH) (peptide)
peptide: EHWSYGLQPG
modifications: pGlu (pyroglutamate) at position 1; C-terminal amide
B2: GnRH II ([His5, Trp7, Tyr8]GnRH) (peptide)
peptide: [pGlu]HWSHGWYPG-NH2
SMILES: NC(=O)CNC(=O)[C@@H]1CCCN1C(=O)[C@H](Cc1ccc(O)cc1)NC(=O)[C@H](Cc1c[nH]c2ccccc12)NC(=O)CNC(=O)[C@H](Cc1c[nH]cn1)NC(=O)[C@H](CO)NC(=O)[C@H](Cc1c[nH]c2ccccc12)NC(=O)[C@H](Cc1c[nH]cn1)NC(=O)[C@@H]1CCC(=O)N1

Assays:
[1] = biological target: T1, human GnRH receptor (human); assay: cell-based or functional assay
[2] = biological target: affinity purified rabbit anti-RI-GnRH antibody fraction eluted with potassium thiocyanate, first fraction (KSCN 1); assay: inhibition ELISA: antibody fraction preincubated with free peptide, binding to coated RI-GnRH

Binder	half-maximal effective concentration (EC50) of IP production [1] [nM]	IC50 (read off the curve) [2] [nM]
B1	1	100
B2	1	–
